Results as given in article doi:10.1101/2022.06.19.496723.

Target: NnlA (N-nitroglycine lyase) from Variovorax sp. strain JS1663, tag-free after TEV cleavage (Variovorax sp. strain JS1663)
Test: SEC

Substance: NnlA (N-nitroglycine lyase) from Variovorax sp. strain JS1663, tag-free after TEV cleavage (enzyme)
- stoichiometry N: 2
